Results as given in article doi:10.1101/331207 (bioRxiv, 2018).

Biological target: the molecule itself
Test: cryo-EM structure

B1: human LRRC8A (leucine-rich repeat-containing 8A) wild-type protein (natural protein)
chain: MIPVTELRYFADTQPAYRILKPWWDVFTDYISIVMLMIAVFGGTLQVTQDKMICLPCKWVTKDSCNDSFRGWAAPGPEPTYPNSTILPTPDTGPTGIKYDLDRHQYNYVDAVCYENRLHWFAKYFPYLVLLHTLIFLACSNFWFKFPRTSSKLEHFVSILLKCFDSPWTTRALSETVVEESDPKPAFSKMNGSMDKKSSTVSEDVEATVPMLQRTKSRIEQGIVDRSETGVLDKKEGEQAKALFEKVKKFRTHVEEGDIVYRLYMRQTIIKVIKFILIICYTVYYVHNIKFDVDCTVDIESLTGYRTYRCAHPLATLFKILASFYISLVIFYGLICMYTLWWMLRRSLKKYSFESIREESSYSDIPDVKNDFAFMLHLIDQYDPLYSKRFAVFLSEVSENKLRQLNLNNEWTLDKLRQRLTKNAQDKLELHLFMLSGIPDTVFDLVELEVLKLELIPDVTIPPSIAQLTGLKELWLYHTAAKIEAPALAFLRENLRALHIKFTDIKEIPLWIYSLKTLEELHLTGNLSAENNRYIVIDGLRELKRLKVLRLKSNLSKLPQVVTDVGVHLQKLSINNEGTKLIVLNSLKKMANLTELELIRCDLERIPHSIFSLHNLQEIDLKDNNLKTIEEIISFQHLHRLTCLKLWYNHIAYIPIQIGNLTNLERLYLNRNKIEKIPTQLFYCRKLRYLDLSHNNLTFLPADIGLLQNLQNLAITANRIETLPPELFQCRKLRALHLGNNVLQSLPSRVGELTNLTQIELRGNRLECLPVELGECPLLKRSGLVVEEDLFNTLPPEVKERLWRADKEQA
  stoichiometry N: 6
